Literature values in article PMC12152951.

Experiments:
[1] = molecular target: TSLPR-IL7Rα fusion protein (Homo sapiens) (UniProt Q9HC73)
[2] = molecular target: TSLPR (Homo sapiens) (UniProt Q9HC73)
[3] = molecular target: IL7Rα (Homo sapiens) (UniProt P16871)
UniProt P16871, sequence (P16871 21-239): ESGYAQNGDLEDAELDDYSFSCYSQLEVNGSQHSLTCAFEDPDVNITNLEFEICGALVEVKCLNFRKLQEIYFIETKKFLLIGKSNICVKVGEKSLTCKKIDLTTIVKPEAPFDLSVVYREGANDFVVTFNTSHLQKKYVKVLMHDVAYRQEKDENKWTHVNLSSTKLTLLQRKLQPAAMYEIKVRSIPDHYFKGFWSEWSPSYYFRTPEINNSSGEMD

Row | Substance | Kd [1] [nM] | Kd [2] [nM] | Kd [3] [nM]
1 | TSLP (from UniProt Q969D9) | 0.09 | 32 | 
2 | TSLP-TSLPR complex (from UniProt Q969D9) |  |  | 29
